According to the DeepSol protein solubility set:

Assay: soluble on expression in E. coli; label from the status in PepcDB or PDB records
In the case of “MSQSTSSEGSGPAAKIARKNSPENDPETAEMFIVDEITDMRYSTTCRQLQFLVKWAIPGSEMTWQPLDDFPFGLNHFSILDYRKDHEEKYEACLQKQRRSKVMKDDDRSWNVSRNSNRSRNRSKSSSKPAQRTEPMTQREKFDAILQISEISLEKQYKLTNKKVPRRSQFTDPDAPKKKSKGARHYRDQNLKTLFKSSLIRKYRKPQESDDDLEPDVAQDSPENTPAPPTKSPESSGFSENLENLGANTPSPSPDFEEEHLEKKPETGNLTENRPKRVYSHETAESMENYAKLLLYTAFDTKSWETLGGHIKNGFRLSFVCSNGLTIIENVVELNKNLNKFSDSRESRMVADLFELLLKKGVEFDEKTLPPTMCAAVRSTRYDIRRDFRCLHNQYIDKRPRMCEWFSATGGGGSCGTTEICTFWNNDAGYLPNTHQRSKFHVDLSEFTGNNLGLLAFSMAWHEDFIDNNSGGPEIVKNNRFNAHIDVPCFTLWMNGKMCEKLENSHGLSIFRPLGTVLDVNELKIKITEHSSRFVAILPVFNLNSDWKNCFFPLENQ”, the “soluble on expression in E. coli” value is reported as “not soluble”.
For “MGSDKIHHHHHHMSMTDTTLAETEILLAQPRGFCAGVDRAIEIVERAIKLHGSPIYVRHEIVHNAYVVEDLRKKGAIFIERLEEVPPGNTVIFSAHGVSKAVRSEAEIRGLRVYDATCPLVTKVHIEVAKMRQDGFDIVMIGHKGHPEVEGTMGQAGEGMHLVEDIEDVQALQLADPERIAFVTQTTLSVDDAAQIIAALKAKYPSIREPKKQDICYATQNRQDAVKFMAPQCDVVIVVGSPNSSNSNRLRELAEKLGVPAYMVDSPDQIDPVWVEGKRRIGVTAGASAPEVLAQAVIARLRELGVRNVRALDGIEENIAFPLPRGLGLPA”, the “soluble on expression in E. coli” value was “not soluble”.
For “MQGQKIPATVITGFLGSGKTTMIRNLLENANGKRIALIINEFGDLGVDGGILKRCGIETCREEDVIELNNGCICCTVADDFIPTMTKLLDREDRPDHIVIETSGLALPQPLVAAFNWPEIKTQVTVDGVVTVIDAAAVAEGRFADDHDKVDAQRAADESLDHESPLEELFEDQIHAADLIVLNKADLIDAAKLDSVKADVAERSSRRVNMVPASFGKLGADVLLGLGVGTEDDIVNRRSHHEAHHGDGHEHDHDEFESFVVEAGSVADPKAFAEKLKAVIAEHDILRLKGFVDVPGKPMRLVVQAVGPRIEHYFDRPWGKDETRSTRLVVIGLHDIDEAAIAQAVKDADLEHHHHHH”, the “soluble on expression in E. coli” value was “not soluble”.
For “MGSDKIHHHHHHMASKATSIDIAYRAGVSQSTVSRALRNSPLVNLETRQRIQAIAKELNYKVDKNASNLRMQNSHTLALLICEDPTNDESMINPFFLSMLGSITRATARQGYDLLVSFQQLSTDWHADYEDSNKADGIILLGYGDYMDYAHKLDKLIEKNTHFVIWGAEHNNKAVLSIGCDNHQGGFVATEHLLGLGHKHIAFLGDSSSRSPEFRDRYLGHVDALQSTGIEADTQLQHDAINTEASGYHAANVLLDSGVTFDAIFTASDLIAIGAIRALKKRGVLVPEQVAVVGYDDIPVASFANPALTTIKQDTQFAGEILVESVLKLIRGQEVSQRLIKTHLVVRSSCGANVEDN”, the “soluble on expression in E. coli” value was “not soluble”.
For “MNYRIIPVTAFSQNCSLIWCEQTRLAALVDPGGDAEKIKQEVDDSGLTLMQILLTHGHLDHVGAAAELAQHYGVPVFGPEKEDEFWLQGLPAQSRMFGLEECQPLTPDRWLNEGDTISIGNVTLQVLHCPGHTPGHVVFFDDRAKLLISGDVIFKGGVGRSDFPRGDHNQLISSIKDKLLPLGDDVIFIPGHGPLSTLGYERLHNPFLQDEMPVW”, the “soluble on expression in E. coli” value was “soluble”.
In the case of “MKWNLDPSHTSIDFKVRHMGIASVRGSLKVLSGSVETDEAGRPIQVEAVIDAASIATGEPQRDGHLRSADFLHAEQYPEIRFVSTQIEPLGGNRYRIQGNLTIRDITKPVTLEAEVSAPIKDPWGMQRVAASASGQINRKDWNLTWNQVLELGALLVGEEVKFNLEVEAVAPAPVAAQ”, the “soluble on expression in E. coli” value is reported as “soluble”.
For “MHHHHHHSSGRENLYFQGSGTIYGWGHNHRGQLGGIEGAKVKVPTPCEALATLRPVQLIGGEQTLFAVTADGKLYATGYGAGGRLGIGGTESVSTPTLLESIQHVFIKKVAVNSGGKHCLALSSEGEVYSWGEAEDGKLGHGNRSPCDRPRVIESLRGIEVVDVAAGGAHSACVTAAGDLYTWGKGRYGRLGHSDSEDQLKPKLVEALQGHRVVDIACGSGDAQTLCLTDDDTVWSWGDGDYGKLGRGGSDGCKVPMKIDSLTGLGVVKVECGSQFSVALTKSGAVYTWGKGDYHRLGHGSDDHVRRPRQVQGLQGKKVIAIATGSLHCVCCTEDGEVYTWGDNDEGQLGDGTTNAIQRPRLVAALQGKKVNRVACGSAHTLAWSTSKP”, the “soluble on expression in E. coli” value was “soluble”.
In the case of “MSIEHHFLCPKKLLKLCNKKIDKDVIRNLQLLTEKFLSDIIHRSALLCKHKGKSTVDNTDIRFVIEKDFDYSFGTREIQGTTSLPTAEHLERMAEISRQNK”, the “soluble on expression in E. coli” value is reported as “not soluble”.
For “MGSDKIHHHHHHMKEVKDFYDKWEPEDFPNYIKLLMNFADELIFEEISLLLKKFENKKDFLVLDCGCGFGAFYNLTKDFNTIYLDISLNLLKRFKLKERKICANILHLPFKDNTFDLVLCINVLEHVNYLKALNEIRRILKNKGKLIVVVVNKDSLIKEEIFNDFKIFHKPLSIKDFEIDGFKIVYSNSVYFLPSIFKISPPIILSKIIEYWKPVDKKLSKIFKNKGQFLIIEMVKE”, the “soluble on expression in E. coli” value was “not soluble”.
In the case of “TVQTQDKVTAMDKDPKVTVDVTGYQWNWKFGYAKVAGELSPTGSDYVGTDEKRQEAAEKTKFDQGGDNPNPINGRSKTDTSYLHFNKIETLGTSEEIPV”, the “soluble on expression in E. coli” value is reported as “not soluble”.
In the case of “MIELAELTKTAGGLVIDQFTQKRERPDSRTMIGSGKLEQMRWAIEVGEIDTVIFNDRLSPRQNVNLEEALGVKVIDRMQLILDIFAMRARSHEGMLQVEEAQLNYLLPRLVGQGIMLSRQGGGIGSKGPGETKLETDRRYIRTRIENIDKALKKVEKTRENIRQKRSKSGIFRIGLIGYTNAGKSSIMNALVGLDKEQYEQNELFATLDATTKAVKLVEDFTVSLTDTVGFIQNLPTELIKAFKSTLEESANVDLLIHVVDASNPHHEIHEQTVLKIMEDLKLTNIPVLNVYNKMDIAPSDFLPTLSPSLQLSIKSESGVQWLKTAILEKLHELFDAFELELPYEKAYQLPELRKSALVQSVVEGEKGYLIKGLIAPELSWKLPNNLEHHHHHH”, the “soluble on expression in E. coli” value is reported as “not soluble”.
For “MGSDKIHHHHHHMITTSNITMQFGVKPLFEKVSVKFGEGNRYGLIGANGSGKSTFMKILGGDLEQTAGEVAIENGLRLGKLRQDQFGYEDQRVIDVVMMGHTEMWAAMSERDAIYANLEATEDDYMRAADLEAKFAEYDGYTAEARAGELLMGVGIPVEQHFGPMSEVAPGWKLRVLLAQALFSNPDILLLDEPTNNLDINTIRWLEHVLNERNSTMIIISHDRHFLNSVCTHMADLDYNTIRIYPGNYDDYMIASAQARERQLSSNSKAKERIQELQEFVARFSANKSKARQATSRLKQVDKLKSEMVEVKPSSRQNPFIRFEMDDKFKLHRQAVEVEGLSKAYDNKVLFKDLNLILEAGARLAIIGPNGAGKTSLIKLLAGAFEPAYAEGLTADRGTIKWAEKAQIGYFAQDHEADFDSDATLTEWMREWGQEGDDEQVIRGTLGRLLFGGDEVGKPVRVLSGGEKGRMLYGKLILQKPNVMIMDEPTNHMDMESIESLNMALEKYKGTLIFVSHDRQFVSSLATHVLELDGKGGYDYYTGNYEDYLASKGLE”, the “soluble on expression in E. coli” value was “not soluble”.
For “MAIISSLANHLLIAMPSLKDPNFERSVVYLCEHNEQGSVGLIINRPLQFPLSIVFEQLQIEPIRVEKNGLPLLFGGPVQPERGFVIHKQMGGWRSSLFLQDEVTVTTSNDIIRAIAYDEGPKDVLITLGYAAWTEQQLEREIMSNTWLVCPYKSEILYEVPFEERWEYAGLTLGIKMNQLSSDAGHALEHHHHHH”, the “soluble on expression in E. coli” value was “not soluble”.
With “MGSDKIHHHHHHMLSDITVRYKLNNSIKDSRFETEHLAKYHLSFQVNFELFRICIVDGDSNRCLFLEDYTLADIYTTNDLLEQLDILFEDHILIKAGFWKSITVGFKNTQFSLIPEALFEKDYLKEYLTLNTTLDREPDEEYHFYKQRQTEAVNVFATNQRLTSWFNKTYPLKQVRYVHHTASMIEGIMLQKDKNAAEKSVFIQVEQYFLTIIVKQGKKLIFCNSFTFNTSEDFVYFILFVFDQLELNPEKCPVVVFGEITHDSESFSKLYKYIRHLTFGSKPEFVRFGYQFDEVFDHRYFDLYNMHLCQG” the “soluble on expression in E. coli” value was “not soluble”.
With “MGSDKIHHHHHHMETLILTQEEVESLISMDEAMNAVEEAFRLYALGKAQMPPKVYLEFEKGDLRAMPAHLMGYAGLKWVNSHPGNPDKGLPTVMALMILNSPETGFPLAVMDATYTTSLRTGAAGGIAAKYLARKNSSVFGFIGCGTQAYFQLEALRRVFDIGEVKAYDVREKAAKKFVSYCEDRGISASVQPAEEASRCDVLVTTTPSRKPVVKAEWVEEGTHINAIGADGPGKQELDVEILKKAKIVVDDLEQAKHGGEINVAVSKGVIGVEDVHATIGEVIAGLKDGRESDEEITIFDSTGLAIQDVAVAKVVYENALSKNVGSKIKFFRI” the “soluble on expression in E. coli” value was “soluble”.
In the case of “MGSDKIHHHHHHMSLLALFSLFGCDNAANTATICKNNPELCDDLHRDSWCRYERADLIQKRYTLKNTPSPTGKQIYQHLINLENYSKCIELAAGVQHIMHPERTNDRVRAFGISAQNLAQLRETTKDNPDLYLSYYHWIRLNDQAALSRVIKAQQAGSIKDLEILASLASYYQKSDLDKAKALYLQLLDSADPDSFNPDWLLGLASIYHQQNDLEKTYLFSKANVLMTRNTASDAKMNALINGNQQLAHFLDEQADTLVEHLKNGDYASSEIRAQLNTSS”, the “soluble on expression in E. coli” value is reported as “not soluble”.
In the case of “MRLTEGIVVDSVLTFGKLRFSALRREVRKQNEDGTVSNEVKERTYNLKSSAQGRMIQVSIPANVPLREFAYDAEVELVNPIVDTVANYVFREGTTVNWFIKADDLVLKRQPNQGNSTNQIEGKK”, the “soluble on expression in E. coli” value is reported as “not soluble”.
In the case of “ALKQKIIGNGEKRVVTYAPTWREDDFISVGHYHFRWHFSLKKMMGLLPEDVMLLIRPHYLVTDRIDIKGFEDRVVIDSTTDMNEIYLITDLMVTDYSSVMFDFAILKRPMLFFAYDLEYYRDDLRGFYFDYYTELPGSIVTDETHLLAEIDQLLQNNFAELDPERFNKFAKRFVSWERGTAAQQVIEKINYRRDEK”, the “soluble on expression in E. coli” value is reported as “not soluble”.
With “MIYFQTKDDAFFTLASEQEADKPHREHLLDLTLGKGRKRKSSEVLRRGRLAACGLSFVVKNTLGELVGSVRLWHVQFNKGHNEIQHALLLGPLAVAAECSGIGIGSALMRHAIATAKKMGYGAIFLVGDCAFYQRFGFSSSLTKNLAMPGPYEKHRFQALELIPHYLTSCHGILTPSGELEDWNSFQHHKVA” the “soluble on expression in E. coli” value was “not soluble”.
With “MGSDKIHHHHHHMEKILLVDDEQFVLDGLKRQLRRKYAIHTADGGEKGLQLIQSDGPFAVVVSDMRMPEMNGIEFLTQVRRVAPDSIRIMLTGYADQKTAINAINEGAIFRFLTKPCSLENLTVALDAALDQYRLITAEKELLEKTLKGSIKVLVDILSLSAPAAFSQATRLRKYAAQIVARLEFPDSWQYEIAALLSSIGFVNIPPETITKHLIGEKLTGREQEMIDAVPETAGMLLANIPRLSAVALMINRQNTPCSEPTAFKNGDFHEAVRIGANLLKVLTDFDILLIRNYEPEEAIRIMSERIGLYDRTLLNMLAILDLPRRDQGVRNIRIDDLREGMIIDADIRNTHGILVVPKGYEVNESTCQRLKNFLIRQTGAETVRVLMPVYAEEESQ” the “soluble on expression in E. coli” value was “not soluble”.
